Numbering of substitutions follows the chain as printed.
B1: 抗体15A7 (antibody, V domains shown)
VH: QVQLVQSGAEVKKPGASVKVSCKASGYTFTSYDINWVRQASGQGLEWMGWMNPNSANPGYAQKFQGRVTMTRNTSISTAFMELSSLRSDDTAVYYCARARVTIHYDILTGYYSNAFDIWGQGTMVAVSS
VL: DIQMTQSPSSLSASVGDRVTITCRASQTISSYLNWYQQKPGKAPKLLIYAASSLQSGVPSRFSGSGSGADFTLTISSLQPEDFATYYCQQSYTTFMYTFGQGTMLEIK
B2: 抗体37G2 (antibody, V domains shown)
VH: QVQLVQSGAEVKKPGSSVKVSCKASGGTFSSYAITWVRQAPGQGLEWMGGIIPIFGTANFAQKFQGRVTITADESTSTAYMELSSLRSEDTAVYYCAHLGGFADPFDYWGQGTLVTVSS
VL: EIVLTQSPATLSLSPGERATLSCRASQSVSNYLAWYQQKAGQAPRVLIYDAFNRATGIPARFSGSGSGTDFTLTISSLEPEDFAVYYCQQRSNWPPRITFGQGTRLEIK
B3: 抗体31C2 (antibody, V domains shown)
VH: QVQLVQSGAEVKKPGSSVKVSCKASGGTFSSYAISWVRQAPGQGLEWMGGIIPIFGTTNYAQKFQGRVTITADESTSTAYMELNSLRSEDTAVYYCAGRSAYGDKGYYFDYWGQGTLVTVSS
VL: B2 VL with Y32F, A40P, V46L, F52S, E79Q, R97Q, I98E, R105K, L106V

The binders below were run against 真实SARS-CoV-2(活病毒) (assay: cell-based or functional assay).

Row | Binder | EC50 (活病毒在Vero-E6细胞中的活体外中和分析) [µg/mL]
1 | B1 | 0.61
2 | B2 | 1.37
3 | B3 | 0.57
